Data from PMC8345934, “Biochemical Studies of Mitochondrial Malate: Quinone Oxidoreductase from Toxoplasma gondii” (International Journal of Molecular Sciences, 2021).

T1: malate:quinone oxidoreductase (TgMQO) (Toxoplasma gondii, UniProt Q1KSF3)
T1 construct: gene mqo; lacking the mitochondrial targeting signal (Δ1-37 residues), His-tag purified
T1 sequence (Q1KSF3 38-549): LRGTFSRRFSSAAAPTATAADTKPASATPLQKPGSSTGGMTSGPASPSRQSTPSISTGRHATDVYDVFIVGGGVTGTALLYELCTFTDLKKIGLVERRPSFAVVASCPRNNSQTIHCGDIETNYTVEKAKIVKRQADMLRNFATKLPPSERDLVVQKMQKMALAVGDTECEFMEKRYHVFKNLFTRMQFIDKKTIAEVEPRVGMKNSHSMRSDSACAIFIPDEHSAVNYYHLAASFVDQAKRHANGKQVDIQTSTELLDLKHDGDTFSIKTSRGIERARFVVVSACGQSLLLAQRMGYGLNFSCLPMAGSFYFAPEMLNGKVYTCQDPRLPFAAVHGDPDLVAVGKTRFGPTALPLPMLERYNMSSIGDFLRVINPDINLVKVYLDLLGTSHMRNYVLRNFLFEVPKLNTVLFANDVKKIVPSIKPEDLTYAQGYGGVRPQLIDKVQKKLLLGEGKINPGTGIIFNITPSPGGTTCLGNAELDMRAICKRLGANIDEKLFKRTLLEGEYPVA


Legend:
[1] = target: T1, malate:quinone oxidoreductase (TgMQO); assay: spectrophotometric dUQ reduction at […] nm, purified recombinant enzyme; assay type: biochemical
purified protein [2] = substrate: COC1=C(OC)C(=O)C(C)=CC1=O; assay: purified protein; details: FAD ubiquinone binding site
purified protein [3] = substrate: COC1=C(OC)C(=O)C(C/C=C(\C)CC/C=C(\C)CC/C=C(\C)CC/C=C(\C)CC/C=C(\C)CCC=C(C)C)=C(C)C1=O; assay: purified protein; details: FAD ubiquinone binding site
purified protein [4] = substrate: COC1=C(OC)C(=O)C(CC=C(C)C)=C(C)C1=O; assay: purified protein; details: FAD ubiquinone binding site
purified protein [5] = substrate: COC1=C(OC)C(=O)C(C/C=C(\C)CC/C=C(\C)CC/C=C(\C)CCC=C(C)C)=C(C)C1=O; assay: purified protein; details: FAD ubiquinone binding site
purified protein [6] = substrate: O=C(O)C[C@H](O)C(=O)O; assay: purified protein; details: FAD malate binding site
purified protein [7] = substrate: CCCCCCCCCCC1=C(C)C(=O)C(OC)=C(OC)C1=O; assay: purified protein; details: FAD ubiquinone binding site
purified protein [8] = substrate: COC1=C(OC)C(=O)C(C/C=C(\C)CCC=C(C)C)=C(C)C1=O; assay: purified protein; details: FAD ubiquinone binding site

Row | Molecule | IC50 [1] [nM] | Km (purified protein [2]) [µM] | Vmax (purified protein [2]) [µmol/min/mg] | Km (purified protein [3]) [µM] | Vmax (purified protein [3]) [µmol/min/mg] | Km (purified protein [4]) [µM] | Vmax (purified protein [4]) [µmol/min/mg] | Km (purified protein [5]) [µM] | Vmax (purified protein [5]) [µmol/min/mg] | Km (purified protein [6]) [µM] | Vmax (purified protein [6]) [µmol/min/mg] | Km (purified protein [7]) [µM] | Vmax (purified protein [7]) [µmol/min/mg] | Km (purified protein [8]) [µM] | Vmax (purified protein [8]) [µmol/min/mg]
1 | CC(C)=CCC/C(C)=C/CC/C(C)=C/Cc1c(O)c2ccccc2oc1=O [Ferulenol] | 822 ± 151 |  |  |  |  |  |  |  |  |  |  |  |  |  | 
2 | malate:quinone oxidoreductase (TgMQO) (Toxoplasma gondii) (protein) LRGTFSRRFSSAAAPTATAADTKPASATPLQKPGSSTGGMTSGPASPSRQSTPSISTGRHATDVYDVFIVGGGVTGTALLYELCTFTDLKKIGLVERRPSFAVVASCPRNNSQTIHCGDIETNYTVEKAKIVKRQADMLRNFATKLPPSERDLVVQKMQKMALAVGDTECEFMEKRYHVFKNLFTRMQFIDKKTIAEVEPRVGMKNSHSMRSDSACAIFIPDEHSAVNYYHLAASFVDQAKRHANGKQVDIQTSTELLDLKHDGDTFSIKTSRGIERARFVVVSACGQSLLLAQRMGYGLNFSCLPMAGSFYFAPEMLNGKVYTCQDPRLPFAAVHGDPDLVAVGKTRFGPTALPLPMLERYNMSSIGDFLRVINPDINLVKVYLDLLGTSHMRNYVLRNFLFEVPKLNTVLFANDVKKIVPSIKPEDLTYAQGYGGVRPQLIDKVQKKLLLGEGKINPGTGIIFNITPSPGGTTCLGNAELDMRAICKRLGANIDEKLFKRTLLEGEYPVA |  | 225 ± 77 | 12.7 | 8.0 ± 3.3 | 3.64 | 116 ± 16 | 44.2 | 7.7 ± 4.3 | 4.39 | 370 ± 140 | 6.3 | 17 ± 4.7 | 12.1 | 13.2 | 45.1
